Laboratory results published in patent US11472877 (Alector, dated 2022).

T1: human TREM2 on BWZ cells (human, UniProt Q9NZC2 19-230)
T1 construct: whole, on cells; not tied to the cell line; also called BWZ Human TREM2
T1 sequence (looked up): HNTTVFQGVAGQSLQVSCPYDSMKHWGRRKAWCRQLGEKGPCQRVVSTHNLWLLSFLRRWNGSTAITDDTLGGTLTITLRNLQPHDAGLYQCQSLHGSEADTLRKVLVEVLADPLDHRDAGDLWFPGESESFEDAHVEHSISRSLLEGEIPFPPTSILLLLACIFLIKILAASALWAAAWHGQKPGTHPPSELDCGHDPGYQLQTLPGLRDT

T2: mouse TREM2 on BWZ cells (mouse, UniProt Q99NH8 19-227)
T2 construct: whole, on cells; also called BWZ Mouse TREM2
T2 sequence (looked up): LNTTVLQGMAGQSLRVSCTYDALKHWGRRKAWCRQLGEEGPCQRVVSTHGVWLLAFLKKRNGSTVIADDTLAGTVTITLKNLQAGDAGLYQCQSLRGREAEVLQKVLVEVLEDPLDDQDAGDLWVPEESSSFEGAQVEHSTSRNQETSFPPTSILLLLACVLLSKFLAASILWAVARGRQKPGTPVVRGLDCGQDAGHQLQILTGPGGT

T3: mouse TREM1 on CHO cells (mouse, UniProt Q9JKE2 21-230)
T3 construct: also called CHO-mT1
T3 sequence: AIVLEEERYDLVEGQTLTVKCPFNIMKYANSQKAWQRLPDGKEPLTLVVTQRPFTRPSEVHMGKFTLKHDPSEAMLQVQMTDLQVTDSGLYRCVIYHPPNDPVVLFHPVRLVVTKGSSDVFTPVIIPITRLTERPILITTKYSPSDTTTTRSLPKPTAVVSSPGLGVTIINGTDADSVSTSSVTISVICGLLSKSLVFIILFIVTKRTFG


Experiments:
human TREM2 on BWZ cells [1] = target: T1, human TREM2 on BWZ cells; assay: FACS, BWZ cells
mouse TREM2 on BWZ cells [2] = target: T2, mouse TREM2 on BWZ cells; assay: FACS, BWZ cells
human TREM2 on BWZ cells [3] = target: T1, human TREM2 on BWZ cells; assay: FACS, BWZ human TREM2
mouse TREM2 on BWZ cells [4] = target: T2, mouse TREM2 on BWZ cells; assay: FACS, BWZ mouse TREM2
mouse TREM1 on CHO cells = target: T3, mouse TREM1 on CHO cells; assay: FACS, CHO mouse TREM1

Binder	binding result (human TREM2 on BWZ cells [1])	binding result (mouse TREM2 on BWZ cells [2])	FOB Fold Over Background (human TREM2 on BWZ cells [3]) [fold]	FOB Fold Over Background (mouse TREM2 on BWZ cells [4]) [fold]	FOB Fold Over Background (mouse TREM1 on CHO cells) [fold]
T1-27 (antibody, IgG1, V domains shown, huIgG1; also called TI-27) VH: QVQLQESGPGLVKPSQTLSLTCTVSGGSISSGGYYWSWIRQHPGKGLEWIGYIYYSGSTYYNPSLKSRVTISVDTSKNQFSLKLSSVTAADTAVYYCARDSSIAGRATLSFDYWGQGTLVTVSS VL: DIQMTQSPSSLSASVGDRVTITCRASQSISSYLNWYQQKPGKAPKLLIYAASSLQSGVPSRFSGSGSGTDFTLTISSLQPEDFATYYCQQSFYDPITFGGGTKVEIK	no binding	no binding	0.8	1.2	523
T1-32 (antibody, IgG1, V domains shown, huIgG1; also called TI-32) VH: QLQLQESGPGLVKPSETLSLTCTVSGGSISSSSYYWGWIRQPPGKGLEWIGSIYYSGSTYYNPSLKSRVTISVDTSKNQFSLKLSSVTAADTAVYYCARDAPAVVGESPAFDIWGQGTMVTVSS VL: DIQMTQSPSSLSASVGDRVTITCRASQSISRYLNWYQQKPGKAPKLLIYAASSLQSGVPSRFSGSGSGTDFTLTISSLQPEDFATYYCQQSLDLPFTFGGGTKVEIK	no binding	no binding	0.9	1.2	380
T1-31 (antibody, IgG1, V domains shown, huIgG1; also called TI-31) VH: QLQLQESGPGLVKPSETLSLTCTVSGGSISSSSYYWGWIRQPPGKGLEWIGSIYYSGSTYYNPSLKSRVTISVDTSKNQFSLKLSSVTAADTAVYYCARDRRMWDPYGMDVWGQGTTVTVSS VL: DIQMTQSPSSLSASVGDRVTITCQASQDISNYLNWYQQKPGKAPKLLIYDASNLETGVPSRFSGSGSGTDFTFTISSLQPEDIATYYCQQYDDFPPITFGGGTKVEIK	no binding	no binding	0.5	0.9	447
T1-25 (antibody, IgG1, V domains shown, huIgG1; also called TI-25; ADI-19092) VH: EVQLVESGGGLVQPGRSLRLSCAASGFTFDDYAMHWVRQAPGKGLEWVSGISWNSGSIGYADSVKGRFTISRDNAKNSLYLQMNSLRAEDTALYYCAKGGSRYSHFDYWGQGTLVTVSS VL: EIVLTQSPATLSLSPGERATLSCRASQSVSSYLAWYQQKPGQAPRLLIYDASNRATGIPARFSGSGSGTDFTLTISSLEPEDFAVYYCQQRSVLPLTFGGGTKVEIK	no binding	no binding	0.7	1.3	0.9
T1-54 (antibody, IgG1, V domains shown, huIgG1; also called TI-54; ADI-19129) VH: QVQLVQSGAEVKKPGSSVKVSCKASGGTFSSYAISWVRQAPGQGLEWMGGIIPIFGTANYAQKFQGRVTITADESTSTAYMELSSLRSEDTAVYYCARHWYALGSFDIWGQGTMVTVSS VL: EIVMTQSPATLSLSPGERATLSCRASQSVSSYLAWYQQKPGQAPRLLIYDSSNRATGIPARFSGSGSGTDFTLTISSLEPEDFAVYYCQQHDVWPITFGGGTKVEIK	no binding	no binding	1.1	1.2	3.1
T1-29 (antibody, IgG1, V domains shown, huIgG1; also called TI-29) VH: QLQLQESGPGLVKPSETLSLTCTVSGGSISSSSYYWGWIRQPPGKGLEWIGSIYYSGSTYYNPSLKSRVTISVDTSKNQFSLKLSSVTAADTAVYYCARDGGGTAQADGAYYYGMDVWGQGTTVTVSS VL: EIVLTQSPATLSLSPGERATLSCRASQSVSSYLAWYQQKPGQAPRLLIYDASNRATGIPARFSGSGSGTDFTLTISSLEPEDFAVYYCQQGVNYPFTFGGGTKVEIK	no binding	no binding	0.7	1.2	401
T1-26 (antibody, IgG1, V domains shown, huIgG1; also called TI-26) VH: QVQLVQSGAEVKKPGASVKVSCKASGYTFTSYYIHWVRQAPGQGLEWMGIINPSGGSTSYAQKFQGRVTMTRDTSTSTVYMELSSLRSEDTAVYYCARDSAQETYYYGMDVWGQGTTVTVSS VL: not shown	no binding	no binding	0.8	1.2	417
T1-28 (antibody, IgG1, V domains shown, huIgG1; also called TI-28) VH: EVQLVESGGGLVKPGGSLRLSCAASGFTFSSYSMNWVRQAPGKGLEWVSSISSSSNYIYYADSVKGRFTISRDNAKNSLYLQMNSLRAEDTAVYYCARGPSQYYYDSSAIEAFDIWGQGTMVTVSS VL: EIVLTQSPATLSVSPGERATLSCRASQSVGSNLAWYQQKPGQAPRLLIYGASTRATGIPARFSGSGSGTEFTLTISSLQSEDFAVYYCQQYLYFPLTFGGGTKVEIK	no binding	no binding	0.6	1.1	408
T1-80 (antibody, IgG1, V domains shown, huIgG1; also called TI-80; ADI-19159) VH: QVQLVESGGGVVQPGRSLRLSCAASGFTFSSYGMHWVRQAPGKGLEWVALIWYDGSNKYYADSVKGRFTISRDNSKNTLYLQMNSLRAEDTAVYYCARELIVGATGGLTYYYGMDVWGQGTTVTVSS VL: EIVMTQSPATLSVSPGERATLSCRASQSVGSNLAWYQQKPGQAPRLLIYGASTRATGIPARFSGSGSGTEFTLTISSLQSEDFAVYYCQQDHDRPLTFGGGTKVEIK	no binding	no binding	1	0.9	1.2
T1-30 (antibody, IgG1, V domains shown, huIgG1; also called TI-30) VH: QLQLQESGPGLVKPSETLSLTCTVSGGSISSSSYYWGWIRQPPGKGLEWIGSIYYSGSTYYNPSLKSRVTISVDTSKNQFSLKLSSVTAADTAVYYCARGRKAAAGIDEAEYFQHWGQGTLVTVSS VL: DIQMTQSPSSVSASVGDRVTITCRASQGISSWLAWYQQKPGKAPKLLIYAASSLQSGVPSRFSGSGSGTDFTLTISSLQPEDFATYYCQQVISFPTFGGGTKVEIK	no binding	no binding	0.5	0.8	453
